Reference: patent CN110982824A

Key:
[1] = molecular target: PD-L1 (UniProt Q9NZQ7); experiment: ELISA, PD-L1 coated, BP at 200 μg/ml, reference PD-1 binding PD-L1
[2] = molecular target: PD-L1 (UniProt Q9NZQ7); experiment: competition ELISA, PD-1 at 50 μg/ml, BP at 200 μg/ml

UniProt Q9NZQ7, sequence (Q9NZQ7 19-238 limits assumed): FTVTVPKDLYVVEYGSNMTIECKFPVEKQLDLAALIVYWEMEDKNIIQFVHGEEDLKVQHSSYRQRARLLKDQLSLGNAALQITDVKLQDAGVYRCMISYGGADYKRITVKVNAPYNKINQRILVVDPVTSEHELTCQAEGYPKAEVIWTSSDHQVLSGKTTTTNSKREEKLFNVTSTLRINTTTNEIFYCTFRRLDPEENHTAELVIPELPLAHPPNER

结合强度 (relative to PD-1 binding PD-L1) [1]: 115%
抑制率 (inhibition of PD-1 binding to PD-L1) [2]: 25%
B1: 拮抗PD-1的抗体类似物BP蛋白 (VHH, not shown: small tags and cut ends)
VHH: DVQLQASGGGSVQAGGSLRLSCAASGYTIGTYAISWFRQAPGKEREGVAGIIPIFGKAHTYYADSVKGRFTISQDNAKNTVYLLMNSLEPEDTAIYYCAAKFHFVSGSPFGMDSWGQGTQVTVSS
